From publication PMC2756588

Experiments:
Assay in all cases: SPOT array
[1] = biological target: T1, Lsb4, P32793; details: median of control spots 397
T1 sequence (P32793 402-468, looked up): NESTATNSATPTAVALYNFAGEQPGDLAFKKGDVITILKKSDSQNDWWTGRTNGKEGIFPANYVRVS

[2] = biological target: Rvs167, P39743; details: median of control spots 2707
[3] = biological target: Myo3, P36006; details: median of control spots 468
[4] = biological target: T2, Myo5, Q04439; details: median of control spots 471
T2 sequence (Q04439 1072-1160, looked up): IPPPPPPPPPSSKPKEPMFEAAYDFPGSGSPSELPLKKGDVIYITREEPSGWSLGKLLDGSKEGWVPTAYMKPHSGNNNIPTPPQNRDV

[5] = biological target: T3, Bbc1, P47068; details: median of control spots 796
T3 sequence (P47068 1-78, looked up): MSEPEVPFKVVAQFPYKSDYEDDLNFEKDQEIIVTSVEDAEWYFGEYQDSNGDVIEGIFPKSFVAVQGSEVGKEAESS

[6] = biological target: Bem1-2, P29366; details: median of control spots 4347
[7] = biological target: T4, Boi1, P38041; details: median of control spots 1162
T4 sequence (P38041 1-86, looked up): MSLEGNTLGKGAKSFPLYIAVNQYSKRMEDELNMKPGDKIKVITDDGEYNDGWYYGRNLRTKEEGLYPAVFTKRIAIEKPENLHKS

[8] = biological target: T5, Abp1, P15891; details: median of control spots 935
T5 sequence (P15891 535-592, looked up): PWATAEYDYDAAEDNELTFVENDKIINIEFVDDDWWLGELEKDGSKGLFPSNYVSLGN

[9] = biological target: T6, Bzz1-1, P38822; details: median of control spots 4446
T6 sequence (P38822 478-572, looked up): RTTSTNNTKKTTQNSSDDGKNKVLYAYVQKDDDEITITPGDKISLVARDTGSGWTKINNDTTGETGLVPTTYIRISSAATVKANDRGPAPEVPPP

[10] = biological target: T7, Hof1, Q05080; details: median of control spots 4086
T7 sequence (Q05080 590-669, looked up): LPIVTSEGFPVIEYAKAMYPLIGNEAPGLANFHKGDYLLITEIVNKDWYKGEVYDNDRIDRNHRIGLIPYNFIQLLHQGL

[11] = biological target: T8, Lsb1, P53281; details: median of control spots 388
T8 sequence (P53281 45-122, looked up): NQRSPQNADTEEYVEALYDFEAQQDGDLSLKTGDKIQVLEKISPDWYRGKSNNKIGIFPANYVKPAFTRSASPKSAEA

[12] = biological target: T9, Pex13, P80667; details: median of control spots 1341
T9 sequence (P80667 295-386, looked up): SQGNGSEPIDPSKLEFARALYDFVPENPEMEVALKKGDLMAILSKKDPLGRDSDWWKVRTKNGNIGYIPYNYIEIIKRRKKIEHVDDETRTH

[13] = biological target: T10, Bud14, P27637; details: median of control spots 956
T10 sequence (P27637 247-328, looked up): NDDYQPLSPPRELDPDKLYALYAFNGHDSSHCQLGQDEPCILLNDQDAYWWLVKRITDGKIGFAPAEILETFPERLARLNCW

[14] = biological target: T11, Lsb3, P43603; details: median of control spots 406
T11 sequence (P43603 385-451, looked up): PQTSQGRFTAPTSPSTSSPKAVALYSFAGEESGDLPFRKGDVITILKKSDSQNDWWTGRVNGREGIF

[15] = biological target: T12, Hse1, P38753; details: median of control spots 1727
T12 sequence (P38753 208-285, looked up): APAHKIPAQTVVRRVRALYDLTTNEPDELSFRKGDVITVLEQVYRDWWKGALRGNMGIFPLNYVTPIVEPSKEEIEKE

[16] = biological target: GST; details: median of control spots 978
[17] = biological target: T13, Sla1-2, P32790; details: median of control spots 712
T13 sequence (P32790 60-140, looked up): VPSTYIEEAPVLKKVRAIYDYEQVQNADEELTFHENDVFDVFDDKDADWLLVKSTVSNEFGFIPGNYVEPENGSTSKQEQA

[18] = biological target: T14, Boi2, P39969; details: median of control spots 1161
T14 sequence (P39969 32-116, looked up): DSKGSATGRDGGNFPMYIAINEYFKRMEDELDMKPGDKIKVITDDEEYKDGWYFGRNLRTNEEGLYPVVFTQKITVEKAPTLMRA

[19] = biological target: T15, Cyk3, Q07533; details: median of control spots 1451
T15 sequence (Q07533 1-83, looked up): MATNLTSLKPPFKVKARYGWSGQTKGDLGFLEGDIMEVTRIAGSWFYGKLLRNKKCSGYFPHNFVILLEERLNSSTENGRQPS

[20] = biological target: T16, Bzz1-2, P38822; details: median of control spots 4538
T16 sequence (P38822 568-633, looked up): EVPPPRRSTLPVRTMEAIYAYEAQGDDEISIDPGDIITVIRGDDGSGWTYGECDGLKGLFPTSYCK

[21] = biological target: T17, Cdc25, P04821; details: median of control spots 969
T17 sequence (P04821 50-136, looked up): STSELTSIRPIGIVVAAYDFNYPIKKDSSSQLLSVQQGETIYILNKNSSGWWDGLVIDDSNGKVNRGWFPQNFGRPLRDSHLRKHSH

[22] = biological target: Bem1-1, P29366; details: median of control spots 4282
[23] = biological target: T18, Pin3, Q06449; details: median of control spots 2171
T18 sequence (Q06449 53-122, looked up): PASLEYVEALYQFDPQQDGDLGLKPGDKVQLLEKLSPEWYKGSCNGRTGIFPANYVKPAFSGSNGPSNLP

[24] = biological target: Sho1, P40073; details: median of control spots 1148
[25] = biological target: T19, Nbp2, Q12163; details: median of control spots 357
T19 sequence (Q12163 103-180, looked up): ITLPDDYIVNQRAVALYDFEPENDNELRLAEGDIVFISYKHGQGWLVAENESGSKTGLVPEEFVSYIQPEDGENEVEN

[26] = biological target: T20, Fus1, P11710; details: median of control spots 1200
T20 sequence (P11710 432-512, looked up): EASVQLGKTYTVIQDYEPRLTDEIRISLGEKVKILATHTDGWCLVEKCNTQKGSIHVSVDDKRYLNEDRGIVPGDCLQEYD

[27] = biological target: T21, Sla1-3, P32790; details: median of control spots 5475
T21 sequence (P32790 344-424, looked up): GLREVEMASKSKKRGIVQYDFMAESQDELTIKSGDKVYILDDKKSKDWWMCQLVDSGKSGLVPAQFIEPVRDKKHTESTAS

Rvs167, P39743, sequence (P39743 419-482): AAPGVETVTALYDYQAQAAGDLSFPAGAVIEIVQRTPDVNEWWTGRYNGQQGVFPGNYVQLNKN
Bem1-2, P29366, sequence (P29366 139-227): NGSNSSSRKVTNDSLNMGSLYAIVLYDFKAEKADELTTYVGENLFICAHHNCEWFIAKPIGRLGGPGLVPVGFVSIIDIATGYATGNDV
Sho1, P40073, sequence (P40073 287-367): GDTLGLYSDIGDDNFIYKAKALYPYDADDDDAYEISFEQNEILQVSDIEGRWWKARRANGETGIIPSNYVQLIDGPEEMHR
Bem1-1, P29366, sequence (P29366 55-141): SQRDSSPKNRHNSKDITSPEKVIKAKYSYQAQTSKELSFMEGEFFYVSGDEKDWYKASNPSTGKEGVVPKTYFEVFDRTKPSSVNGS

Binder	SPOT intensity [1]	SPOT intensity [2]	SPOT intensity [3]	SPOT intensity [4]	SPOT intensity [5]	SPOT intensity [6]	SPOT intensity [7]	SPOT intensity [8]	SPOT intensity [9]	SPOT intensity [10]	SPOT intensity [11]	SPOT intensity [12]	SPOT intensity [13]	SPOT intensity [14]	SPOT intensity [15]	SPOT intensity [16]	SPOT intensity [17]	SPOT intensity [18]	SPOT intensity [19]	SPOT intensity [20]	other results
GKLKHIPRRPYEIER	0	1	0	0	13	0	0	4	0	1	5	2	0	0	1	1	0	0	0	2	SPOT intensity [21]: 0; SPOT intensity [22]: 0; SPOT intensity [23]: 4; SPOT intensity [24]: 9; SPOT intensity [25]: 0; SPOT intensity [26]: 0; SPOT intensity [27]: 16
TKRKRPARLIFYDSK	7	0	7	3	308	6	39	157	0	4	4	1	29	6	11	1	2	9	7	5	SPOT intensity [21]: 61; SPOT intensity [22]: 0; SPOT intensity [23]: 0; SPOT intensity [24]: 91; SPOT intensity [25]: 183; SPOT intensity [26]: 29; SPOT intensity [27]: 33
KLSRGRYGLPLSSRP	0	3	1	0	9	0	4	26	0	8	175	3	4	4	10	0	1	1	0	7	SPOT intensity [21]: 12; SPOT intensity [22]: 1; SPOT intensity [23]: 7; SPOT intensity [24]: 31; SPOT intensity [25]: 2; SPOT intensity [26]: 3; SPOT intensity [27]: 31
RKQRSIPLSPIVPES	9	0	4	2	1	0	1	48	0	0	2	2	1	6	0	1	0	1	0	5	SPOT intensity [21]: 1; SPOT intensity [22]: 0; SPOT intensity [23]: 7; SPOT intensity [24]: 49; SPOT intensity [25]: 0; SPOT intensity [26]: 17; SPOT intensity [27]: 17
KRRTSLFPWLHKPGI	0	0	0	0	39	0	3	25	0	5	0	4	3	0	19	0	0	0	0	3	SPOT intensity [21]: 18; SPOT intensity [22]: 0; SPOT intensity [23]: 0; SPOT intensity [24]: 61; SPOT intensity [25]: 57; SPOT intensity [26]: 31; SPOT intensity [27]: 20
WRPRIVPILPYITRL	6	36	0	0	87	94	0	10	0	770	22	10	2	0	11	0	0	0	0	0	SPOT intensity [21]: 14; SPOT intensity [22]: 0; SPOT intensity [23]: 8; SPOT intensity [24]: 3; SPOT intensity [25]: 1; SPOT intensity [26]: 8; SPOT intensity [27]: 9
